Measurements from article PMC11041684.

Target: Schlegelella thermodepolymerans KpsE (L77C, S138C) (Schlegelella thermodepolymerans)
Assay: cryo-EM structure; KpsMT(E151Q)-KpsE, co-expressed and purified in LMNG (100 mM NaCl, 50 mM Tris pH 7.5, 0.025% LMNG, 5 mM MgCl2), supplemented with 2 mM ATP before grid preparation

stoichiometry N: 8
Substance: Schlegelella thermodepolymerans KpsE (L77C, S138C) (natural protein)
